In IntAct's records for PubMed 15066285:

B1: Protein pop-1 (Caenorhabditis elegans), Q10666 (parent)
chain: MMADEELGDEVKVFRRDEDADDDPMISGETSEQQLADDKKEAVMEAELDGAGRNPSIDVLKSAFPKVEPMSPSFPGLMSHFSPGYSAAALPMFMPLFMNPYAAALRSPSLMFPMGAMSPTFPMFPPSPVYGAAIAAAAAKQHFENMAPLNMRAGHPMNQMGMPPYMHPSSMAPQNVDRRAQGGGKAKKDDHVKKPLNAFMWFMKENRKALLEEIGNNEKQSAELNKELGKRWHDLSKEEQAKYFEMAKKDKETHKERYPEWSARENYAVNKKKTKKRRDKSIPSENNDQKKCRARFGVNNTEMWCKFCKRKKKCEYATDRSGGSDITDSQDGRGTSGAYSSSSESPSPKANAGIALTTQQQQAAMMHTMLMQMRLGSTTGASTHVPSPLASSSAGRSPLDANASDSESDVEEEEDEQIDPTVMQQTHDMLMQESMCTI
partner: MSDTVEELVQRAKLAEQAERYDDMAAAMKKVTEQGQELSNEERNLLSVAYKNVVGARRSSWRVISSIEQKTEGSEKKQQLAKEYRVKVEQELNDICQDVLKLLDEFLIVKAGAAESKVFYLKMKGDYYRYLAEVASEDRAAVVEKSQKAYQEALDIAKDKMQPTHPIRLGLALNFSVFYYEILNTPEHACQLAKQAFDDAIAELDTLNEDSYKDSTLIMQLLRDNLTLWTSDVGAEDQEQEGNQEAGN

Variants of: B1
Details: with 14331_caeel par-5, P41932

For S107A;S109A;S118A;T120A;S127A, which “effect of a mutation on the interaction” value is on record?
Its value is “disrupting interaction”.
